B1: Ovalbumin, P01012 (parent)
chain: MGSIGAASMEFCFDVFKELKVHHANENIFYCPIAIMSALAMVYLGAKDSTRTQINKVVRFDKLPGFGDSIEAQCGTSVNVHSSLRDILNQITKPNDVYSFSLASRLYAEERYPILPEYLQCVKELYRGGLEPINFQTAADQARELINSWVESQTNGIIRNVLQPSSVDSQTAMVLVNAIVFKGLWEKAFKDEDTQAMPFRVTEQESKPVQMMYQIGLFRVASMASEKMKILELPFASGTMSMLVLLPDEVSGLEQLESIINFEKLTEWTSSNVMEERKIKVYLPRMKMEEKYNLTSVLMAMGITDVFSSSANLSGISSAESLKISQAVHAAHAEINEAGREVVGSAEAGVDAASVSEEFRADHPFLFCIKHIATNAVLFFGRCVSP

Variants of: B1
Conditions: Gallus gallus, Thermal, CD, structure 1UHG, whole UniProt chain shown

R143A
Tm (pH 7, Phosphate 10 mM): 69.8 °C | change of melting temperature, mutant - wild type (higher = more stable) (pH 7, Phosphate 10 mM): 0 °C | Tm (pH 10, Glycine-NaOH 0.1 M): 75.6 °C | change of melting temperature, mutant - wild type (higher = more stable) (pH 10, Glycine-NaOH 0.1 M): -3.3 °C

S165A
Tm (pH 7, Phosphate 10 mM): 70.8 °C | change of melting temperature, mutant - wild type (higher = more stable) (pH 7, Phosphate 10 mM): 1 °C | Tm (pH 10, Glycine-NaOH 0.1 M): 75.6 °C | change of melting temperature, mutant - wild type (higher = more stable) (pH 10, Glycine-NaOH 0.1 M): -3.3 °C

S237A
Tm (pH 7, Phosphate 10 mM): 70.4 °C | change of melting temperature, mutant - wild type (higher = more stable) (pH 7, Phosphate 10 mM): 0.6 °C | Tm (pH 10, Glycine-NaOH 0.1 M): 79.3 °C | change of melting temperature, mutant - wild type (higher = more stable) (pH 10, Glycine-NaOH 0.1 M): 0.4 °C

S321A
Tm (pH 7, Phosphate 10 mM): 69.3 °C | change of melting temperature, mutant - wild type (higher = more stable) (pH 7, Phosphate 10 mM): -0.5 °C

S165A S321A
Tm (pH 7, Phosphate 10 mM): 71.3 °C | change of melting temperature, mutant - wild type (higher = more stable) (pH 7, Phosphate 10 mM): 1.5 °C | Tm (pH 10, Glycine-NaOH 0.1 M): 71.8 °C | change of melting temperature, mutant - wild type (higher = more stable) (pH 10, Glycine-NaOH 0.1 M): -7.1 °C

R143A S321A
Tm (pH 7, Phosphate 10 mM): 70 °C | change of melting temperature, mutant - wild type (higher = more stable) (pH 7, Phosphate 10 mM): 0.2 °C | Tm (pH 10, Glycine-NaOH 0.1 M): 71.2 °C | change of melting temperature, mutant - wild type (higher = more stable) (pH 10, Glycine-NaOH 0.1 M): -7.7 °C
